The target in experiment [1] is SAGA DUB module containing Ubp8^C146S (yeast) (UniProt P50102). Kind of experiment: ITC. On the technique in general: ITC needs no label: the signal is the heat of the interaction.
Experiment [2] concerns the target SAGA DUB module containing Ubp8^C146A (yeast) (UniProt P50102). Kind of experiment: ITC.
Experiment [3] concerns the target FlAsH tagged K63-linked diubiquitin (UniProt P0CG47). Kind of experiment: fluorescence polarisation. On the technique in general: Polarisation of emitted light reports the rotation of a fluorescent probe.

Sequence of SAGA DUB module containing Ubp8^C146S (yeast) (P50102 whole entry C146S, chain 1 of 4): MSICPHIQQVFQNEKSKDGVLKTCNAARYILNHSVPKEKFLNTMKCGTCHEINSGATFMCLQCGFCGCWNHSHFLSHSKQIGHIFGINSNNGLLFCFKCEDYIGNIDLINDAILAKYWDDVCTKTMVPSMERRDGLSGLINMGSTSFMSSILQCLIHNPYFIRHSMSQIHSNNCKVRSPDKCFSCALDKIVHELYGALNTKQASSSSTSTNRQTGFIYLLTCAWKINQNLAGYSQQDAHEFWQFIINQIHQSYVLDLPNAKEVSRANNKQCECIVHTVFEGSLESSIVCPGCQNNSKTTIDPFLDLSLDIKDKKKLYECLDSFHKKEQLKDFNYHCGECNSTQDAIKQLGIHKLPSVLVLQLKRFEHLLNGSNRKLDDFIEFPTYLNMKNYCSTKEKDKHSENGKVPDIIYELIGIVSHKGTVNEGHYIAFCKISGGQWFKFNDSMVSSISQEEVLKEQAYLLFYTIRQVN
Sequence of SAGA DUB module containing Ubp8^C146S (yeast) (Q03067 whole entry, chain 2 of 4, further chain): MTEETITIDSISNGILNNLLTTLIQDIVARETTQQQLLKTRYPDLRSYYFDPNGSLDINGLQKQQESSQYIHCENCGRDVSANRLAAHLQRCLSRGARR
Sequence of SAGA DUB module containing Ubp8^C146S (yeast) (Q6WNK7 whole entry, chain 3 of 4, further chain): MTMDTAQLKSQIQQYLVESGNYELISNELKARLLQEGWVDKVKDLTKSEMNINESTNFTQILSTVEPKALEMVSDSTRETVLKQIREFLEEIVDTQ
Sequence of SAGA DUB module containing Ubp8^C146S (yeast) (P53165 1-96, chain 4 of 4, further chain): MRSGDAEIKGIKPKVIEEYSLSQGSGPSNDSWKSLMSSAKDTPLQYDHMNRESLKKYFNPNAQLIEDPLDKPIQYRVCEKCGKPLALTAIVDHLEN
Sequence of SAGA DUB module containing Ubp8^C146A (yeast) (P50102 whole entry C146A, chain 1 of 4): as the sequence (P50102 whole entry C146S, chain 1 of 4) above, with S146A counted along it
Sequence of SAGA DUB module containing Ubp8^C146A (yeast) (Q03067 whole entry, chain 2 of 4, further chain): as the sequence (Q03067 whole entry, chain 2 of 4, further chain) above
Sequence of SAGA DUB module containing Ubp8^C146A (yeast) (Q6WNK7 whole entry, chain 3 of 4, further chain): as the sequence (Q6WNK7 whole entry, chain 3 of 4, further chain) above
Sequence of SAGA DUB module containing Ubp8^C146A (yeast) (P53165 1-96, chain 4 of 4, further chain): as the sequence (P53165 1-96, chain 4 of 4, further chain) above

Usually Kd stands for a measure of binding affinity in units of concentration. A lower Kd goes with tighter binding. Consider “K48-linked diubiquitin (from UniProt P0CG47 1-76)”, for which the values for the Kd in experiment [1] and in experiment [2] were 4.6 µM and 0.47 µM, respectively. Regarding “OTUD1^C320A catalytic domain (residues 287-435) (from UniProt Q5VV17 287-435) (domain or fragment)”, the Kd in experiment [3] turned out to be 40 µM.

The values above are taken from doi:10.1101/238154.
